Consider 21 molecules from patent US20210380703A1.

Sequences and labels used below:
B1: 376_E09 (antibody, V domains shown)
VH: EVQLLESGGGLVQPGGSLRLSCAASGFTFDSYSMNWVRQAPGKGLEWVSGINYNSGYKSYADSVKGRFTISRDNSKNTLYLQMNSLRAEDTAVYYCARSATWHDTHLDYWGQGTLVTVSS
VL: DIQMTQSPSSLSASVGDRVTITCRASQSILTYLNWYQQKPGKAPKLLIYAATSRHSGVPSRFSGSGSGTDFTLTISSLQPEDFATYYCQQSYDTPLTFGGGTKVEIK
B2: 367_F08 (antibody, V domains shown)
VH: EVQLLESGGGLVQPGGSLRLSCAASGFTFSSYGMHWVRQAPGKGLEWVSSINYNSGYTSYADSVKGRFTISRDNSKNTLYLQMNSLRAEDTAVYYCARAATWHDTHLDYWGQGTLVTVSS
VL: DIQMTQSPSSLSASVGDRVTITCRASQSILSYVNWYQQKPGKAPKLVIYAATSRASGVPSRFSGSGSGTDFTLTISSLQPEDFATYYCQQSNELPLTFGGGTKVEIK
B3: 373_E08 (antibody, V domains shown)
VH: EVQLLESGGGLVQPGGSLRLSCAASGFTFDSYGMNWVRQAPGKGLEWVSGINYNSGYTSYADSVKGRFTISRDNSKNTLYLQMNSLRAEDTAVYYCARSATWHDTHLDYWGQGTLVTVSS
VL: DIQMTQSPSSLSASVGDRVTITCRASQSIVSYVNWYQQKPGKAPKLLIYAVTSRASGVPSRFSGSGSGTDFTLTISSLQPEDFATYYCQQSYESPLTFGGGTKVEIK
B4: 374_B11 (antibody, V domains shown)
VH: EVQLLESGGGLVQPGGSLRLSCAASGFTFSSYSMNWVRQAPGKGLEWVSGINYNSGYKSYADSVKGRFTISRDNSKNTLYLQMNSLRAEDTAVYYCARSATWHDTHLDYWGQGTLVTVSS
VL: DIQMTQSPSSLSASVGDRVTITCRASQSILTYVNWYQQKPGKAPKLVIYAATSRASGVPSRFSGSGSGTDFTLTISSLQPEDFATYYCQQSYDLPLTFGGGTKVEIK
B5: 376_H08 (antibody, V domains shown)
VH: EVQLLESGGGLVQPGGSLRLSCAASGFTFDSYGMNWVRQAPGKGLEWVSNINYNGGYKGYADSVKGRFTISRDNSKNTLYLQMNSLRAEDTAVYYCARSATWHDTHLDYWGQGTLVTVSS
VL: DIQMTQSPSSLSASVGDRVTITCRASQSILTYLNWYQQKPGKAPKLLIYAATSRHSGVPSRFSGSGSGTDFTLTISSLQPEDFATYYCQQSDSLPLTFGGGTKVEIK
B6: 369_E04 (antibody, V domains shown)
VH: EVQLLESGGGLVQPGGSLRLSCAASGFTFSDYSMNWVRQAPGKGLEWVSGINYNSGYKSYADSVKGRFTISRDNSKNTLYLQMNSLRAEDTAVYYCARSATWHDTHLDYWGQGTLVTVSS
VL: DIQMTQSPSSLSASVGDRVTITCRASQSILSYVNWYQQKPGKAPKLVIYAATSRASGVPSRFSGSGSGTDFTLTISSLQPEDFATYYCQQSYSLPLTFGGGTKVEIK
B7: 365_E03 (antibody, V domains shown)
VH: EVQLLESGGGLVQPGGSLRLSCAASGFTFDSYSMNWVRQAPGKGLEWVSNINYNGGYTGYADSVKGRFTISRDNSKNTLYLQMNSLRAEDTAVYYCARSATWHDTHLDYWGQGTLVTVSS
VL: DIQMTQSPSSLSASVGDRVTITCRASQSILTYVNWYQQKPGKAPKLLIYAATSLHSGVPSRFSGSGSGTDFTLTISSLQPEDFATYYCQQSDERPLTFGGGTKVEIK
B8: 365_E08 (antibody, V domains shown)
VH: EVQLLESGGGLVQPGGSLRLSCAASGFTFDSYSMNWVRQAPGKGLEWVSGINYNSGYTSYADSVKGRFTISRDNSKNTLYLQMNSLRAEDTAVYYCARSATWHDTHLDYWGQGTLVTVSS
VL: DIQMTQSPSSLSASVGDRVTITCRASQSIISYVNWYQQKPGKAPKLVIYAATSLASGVPSRFSGSGSGTDFTLTISSLQPEDFATYYCQQSYDLPLTFGGGTKVEIK
B9: 366_C03 (antibody, V domains shown)
VH: EVQLLESGGGLVQPGGSLRLSCAASGFTFDSYGMNWVRQAPGKGLEWVSNINYNGGYTGYADSVKGRFTISRDNSKNTLYLQMNSLRAEDTAVYYCARSATWHDTHLDYWGQGTLVTVSS
VL: DIQMTQSPSSLSASVGDRVTITCRASQSILSYLNWYQQKPGKAPKLVIYAATSRASGVPSRFSGSGSGTDFTLTISSLQPEDFATYYCQQSYSNPLTFGGGTKVEIK
B10: 374_E04 (antibody, V domains shown)
VH: EVQLLESGGGLVQPGGSLRLSCAASGFTFSSYSMNWVRQAPGKGLEWVSGINYNSGYKSYADSVKGRFTISRDNSKNTLYLQMNSLRAEDTAVYYCARSATWHDTHLDYWGQGTLVTVSS
VL: DIQMTQSPSSLSASVGDRVTITCRASQSILSYLNWYQQKPGKAPKLLIYAVTSRASGVPSRFSGSGSGTDFTLTISSLQPEDFATYYCQQSYNNPLTFGGGTKVEIK
B11: 372_H03 (antibody, V domains shown)
VH: EVQLLESGGGLVQPGGSLRLSCAASGFTFDSYGMNWVRQAPGKGLEWVSNINYNGGYKSYADSVKGRFTISRDNSKNTLYLQMNSLRAEDTAVYYCARSATWHDTHLDYWGQGTLVTVSS
VL: DIQMTQSPSSLSASVGDRVTITCRASQSIITYVNWYQQKPGKAPKLLIYAATSLASGVPSRFSGSGSGTDFTLTISSLQPEDFATYYCQQSYNLPLTFGGGTKVEIK
B12: 371_B05 (antibody, V domains shown)
VH: EVQLLESGGGLVQPGGSLRLSCAASGFTFSSYSMNWVRQAPGKGLEWVSGINYNSGYTSYADSVKGRFTISRDNSKNTLYLQMNSLRAEDTAVYYCARSATWHDTHLDYWGQGTLVTVSS
VL: DIQMTQSPSSLSASVGDRVTITCRASQSILTYLNWYQQKPGKAPKLVIYAATSLASGVPSRFSGSGSGTDFTLTISSLQPEDFATYYCQQSDETPLTFGGGTKVEIK
B13: 376_G11 (antibody, V domains shown)
VH: EVQLLESGGGLVQPGGSLRLSCAASGFTFSSYSMNWVRQAPGKGLEWVSGINYNSGYKSYADSVKGRFTISRDNSKNTLYLQMNSLRAEDTAVYYCARSATWHDTHLDYWGQGTLVTVSS
VL: DIQMTQSPSSLSASVGDRVTITCRASQSIVTYVNWYQQKPGKAPKLVIYAATSLASGVPSRFSGSGSGTDFTLTISSLQPEDFATYYCQQSYNLPLTFGGGTKVEIK
B14: 366_E03 (antibody, V domains shown)
VH: EVQLLESGGGLVQPGGSLRLSCAASGFTFDSYGMNWVRQAPGKGLEWVSNINYNGGYKSYADSVKGRFTISRDNSKNTLYLQMNSLRAEDTAVYYCARSATWHDTHLDYWGQGTLVTVSS
VL: DIQMTQSPSSLSASVGDRVTITCRASQSILTYLNWYQQKPGKAPKLVIYAATSRHSGVPSRFSGSGSGTDFTLTISSLQPEDFATYYCQQSYSNPLTFGGGTKVEIK
B15: 373_D09 (antibody, V domains shown)
VH: EVQLLESGGGLVQPGGSLRLSCAASGFTFDSYSMNWVRQAPGKGLEWVSGINYNSGYTSYADSVKGRFTISRDNSKNTLYLQMNSLRAEDTAVYYCARSATWHDTHLDYWGQGTLVTVSS
VL: DIQMTQSPSSLSASVGDRVTITCRASQSILTYLNWYQQKPGKAPKLVIYAATSRHSGVPSRFSGSGSGTDFTLTISSLQPEDFATYYCQQSYENPLTFGGGTKVEIK
B16: 374_G02 (antibody, V domains shown)
VH: EVQLLESGGGLVQPGGSLRLSCAASGFTFDSYSMNWVRQAPGKGLEWVSGINYNSGYTSYADSVKGRFTISRDNSKNTLYLQMNSLRAEDTAVYYCARSATWHDTHLDYWGQGTLVTVSS
VL: DIQMTQSPSSLSASVGDRVTITCRASQSILTYLNWYQQKPGKAPKLLIYAASSLQSGVPSRFSGSGSGTDFTLTISSLQPEDFATYYCQQSYDTPLTFGGGTKVEIK
B17: 375_B10 (antibody, V domains shown)
VH: EVQLLESGGGLVQPGGSLRLSCAASGFTFDSYSMNWVRQAPGKGLEWVSGINYNSGYTSYADSVKGRFTISRDNSKNTLYLQMNSLRAEDTAVYYCARSATWHDTHLDYWGQGTLVTVSS
VL: DIQMTQSPSSLSASVGDRVTITCRASQSILSYLNWYQQKPGKAPKLLIYAATSRHSGVPSRFSGSGSGTDFTLTISSLQPEDFATYYCQQSYDLPLTFGGGTKVEIK
B18: 371_F12 (antibody, V domains shown)
VH: EVQLLESGGGLVQPGGSLRLSCAASGFTFDSYSMNWVRQAPGKGLEWVSNINYNGGYKSYADSVKGRFTISRDNSKNTLYLQMNSLRAEDTAVYYCARSATWHDTHLDYWGQGTLVTVSS
VL: DIQMTQSPSSLSASVGDRVTITCRASQSIISYLNWYQQKPGKAPKLLIYAATSRASGVPSRFSGSGSGTDFTLTISSLQPEDFATYYCQQSNNLPLTFGGGTKVEIK
B19: 367_G08 (antibody, V domains shown)
VH: EVQLLESGGGLVQPGGSLRLSCAASGFTFDSYGMNWVRQAPGKGLEWVSNINYNGGYKGYADSVKGRFTISRDNSKNTLYLQMNSLRAEDTAVYYCARSATWHDTHLDYWGQGTLVTVSS
VL: DIQMTQSPSSLSASVGDRVTITCRASQSILSYLNWYQQKPGKAPKLLIYAATSRASGVPSRFSGSGSGTDFTLTISSLQPEDFATYYCQQSYENPLTFGGGTKVEIK
B20: 367_E10 (antibody, V domains shown)
VH: EVQLLESGGGLVQPGGSLRLSCAASGFTFSSYGMHWVRQAPGKGLEWVSSINYNGGYTGYADSVKGRFTISRDNSKNTLYLQMNSLRAEDTAVYYCARAATWHDTHLDYWGQGTLVTVSS
VL: DIQMTQSPSSLSASVGDRVTITCRASQSILSYVNWYQQKPGKAPKLLIYAATSRASGVPSRFSGSGSGTDFTLTISSLQPEDFATYYCQQSYELPLTFGGGTKVEIK
B21: 365_H04 (antibody, V domains shown)
VH: EVQLLESGGGLVQPGGSLRLSCAASGFTFSDYGMNWVRQAPGKGLEWVSGINYNSGYKSYADSVKGRFTISRDNSKNTLYLQMNSLRAEDTAVYYCARSATWHDTHLDYWGQGTLVTVSS
VL: DIQMTQSPSSLSASVGDRVTITCRASQSILTYVNWYQQKPGKAPKLVIYAATSRASGVPSRFSGSGSGTDFTLTISSLQPEDFATYYCQQSYESPLTFGGGTKVEIK

The experiment addresses human Fc (human). The experiment in a line: ELISA, negative control.
For B1, the optical density is 0.246 OD.
B2 gave an optical density of 0.299 OD.
In turn, B3 registered an optical density of 0.165 OD.
The result for B4 reads 0.17 OD; that for B5, 0.274 OD.
The value for B6 was 0.387 OD; that for B7 was 0.314 OD.
The result for B8 reads 0.298 OD; that for B9, 0.274 OD; that for B10, 0.169 OD.
B11 had an optical density of 0.437 OD.
The value for B12 was 0.246 OD.
For B13, the optical density is 0.285 OD.
The result for B14 reads 0.384 OD; that for B15, 0.16 OD; that for B16, 0.175 OD.
The value for B17 was 0.17 OD.
Take B18: the optical density worked out at 0.413 OD.
The value for B19 was 0.33 OD.
Turning to B20, the optical density is 0.271 OD.
The value for B21 was 0.371 OD.
